Experimental data reported in paper PMC8189437 (Molecular Cell, 2021).

T1: Gid9 (S. cerevisiae, UniProt P40492 1-516)
T1 sequence: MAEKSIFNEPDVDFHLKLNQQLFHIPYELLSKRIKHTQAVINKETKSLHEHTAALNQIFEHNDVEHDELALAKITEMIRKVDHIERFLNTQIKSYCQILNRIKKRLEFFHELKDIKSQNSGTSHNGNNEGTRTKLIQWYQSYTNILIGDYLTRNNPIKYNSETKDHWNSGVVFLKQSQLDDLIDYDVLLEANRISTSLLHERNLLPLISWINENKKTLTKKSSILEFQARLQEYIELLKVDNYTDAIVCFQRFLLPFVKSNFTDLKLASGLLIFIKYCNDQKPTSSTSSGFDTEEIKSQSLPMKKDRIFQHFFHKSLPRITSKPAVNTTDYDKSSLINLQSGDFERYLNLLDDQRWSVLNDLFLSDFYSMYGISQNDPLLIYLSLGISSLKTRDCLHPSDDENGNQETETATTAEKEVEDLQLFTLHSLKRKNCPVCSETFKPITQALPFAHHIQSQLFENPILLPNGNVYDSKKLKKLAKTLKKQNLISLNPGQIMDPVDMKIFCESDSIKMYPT

T2: Gid5 (S. cerevisiae, UniProt P40547)
T2 sequence: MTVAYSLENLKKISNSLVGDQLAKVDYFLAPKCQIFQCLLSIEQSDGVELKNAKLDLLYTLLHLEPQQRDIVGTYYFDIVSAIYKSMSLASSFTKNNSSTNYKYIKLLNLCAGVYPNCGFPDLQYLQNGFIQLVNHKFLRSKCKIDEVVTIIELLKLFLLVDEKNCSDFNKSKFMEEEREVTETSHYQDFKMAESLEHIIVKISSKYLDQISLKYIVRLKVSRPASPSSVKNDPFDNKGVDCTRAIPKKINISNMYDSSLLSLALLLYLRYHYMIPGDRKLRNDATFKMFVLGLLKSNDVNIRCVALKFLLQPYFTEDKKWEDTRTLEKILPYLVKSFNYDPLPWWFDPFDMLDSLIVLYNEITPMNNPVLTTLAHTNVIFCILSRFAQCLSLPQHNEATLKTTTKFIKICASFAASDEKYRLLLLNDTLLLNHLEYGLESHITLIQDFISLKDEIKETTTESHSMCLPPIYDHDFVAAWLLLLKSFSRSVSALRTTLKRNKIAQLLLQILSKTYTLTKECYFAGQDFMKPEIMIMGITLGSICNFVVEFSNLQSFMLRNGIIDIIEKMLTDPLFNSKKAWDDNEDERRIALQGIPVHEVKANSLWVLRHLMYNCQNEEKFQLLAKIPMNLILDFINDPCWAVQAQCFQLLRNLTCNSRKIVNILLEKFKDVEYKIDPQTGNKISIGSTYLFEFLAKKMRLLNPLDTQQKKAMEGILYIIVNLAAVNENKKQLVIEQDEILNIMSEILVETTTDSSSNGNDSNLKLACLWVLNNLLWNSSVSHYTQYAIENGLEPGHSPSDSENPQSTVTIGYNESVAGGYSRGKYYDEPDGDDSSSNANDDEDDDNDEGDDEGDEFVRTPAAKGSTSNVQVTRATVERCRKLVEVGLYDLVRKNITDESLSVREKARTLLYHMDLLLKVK

T3: Gid1 (S. cerevisiae, UniProt P53076)
T3 sequence: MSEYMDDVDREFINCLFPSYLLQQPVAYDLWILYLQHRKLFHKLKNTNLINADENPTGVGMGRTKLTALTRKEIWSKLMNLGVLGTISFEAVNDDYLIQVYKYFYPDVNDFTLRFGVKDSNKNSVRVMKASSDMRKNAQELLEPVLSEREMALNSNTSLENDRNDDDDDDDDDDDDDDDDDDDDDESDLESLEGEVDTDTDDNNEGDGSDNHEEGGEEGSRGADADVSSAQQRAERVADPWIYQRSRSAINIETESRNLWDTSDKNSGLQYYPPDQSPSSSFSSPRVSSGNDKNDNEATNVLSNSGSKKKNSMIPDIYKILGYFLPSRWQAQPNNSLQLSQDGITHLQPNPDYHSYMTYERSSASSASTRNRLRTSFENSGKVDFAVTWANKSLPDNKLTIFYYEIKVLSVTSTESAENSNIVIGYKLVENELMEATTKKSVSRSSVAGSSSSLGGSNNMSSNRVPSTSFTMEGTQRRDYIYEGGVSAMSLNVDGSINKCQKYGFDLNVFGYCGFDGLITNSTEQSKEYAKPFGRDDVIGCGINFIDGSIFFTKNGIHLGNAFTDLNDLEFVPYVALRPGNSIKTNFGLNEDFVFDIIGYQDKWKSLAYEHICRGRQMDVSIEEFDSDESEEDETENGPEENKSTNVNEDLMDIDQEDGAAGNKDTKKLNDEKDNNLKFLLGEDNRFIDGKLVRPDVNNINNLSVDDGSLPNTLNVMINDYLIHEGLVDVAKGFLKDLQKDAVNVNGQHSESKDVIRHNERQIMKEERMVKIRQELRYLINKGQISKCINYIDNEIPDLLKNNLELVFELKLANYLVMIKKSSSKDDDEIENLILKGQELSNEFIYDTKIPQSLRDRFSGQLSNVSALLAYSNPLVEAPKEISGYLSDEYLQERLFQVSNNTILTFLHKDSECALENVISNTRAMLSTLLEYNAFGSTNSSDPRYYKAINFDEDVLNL

B1: fructose-1,6-bisphosphatase (Fbp1), C-terminally 6xHis-tagged (enzyme)
chain: PTLVNGPRRDSTEGFDTDIITLPRFIIEHQKQFKNATGDFTLVLNALQFAFKFVSHTIRRAELVNLVGLAGASNFTGDQQKKLDVLGDEIFINAMRASGIIKVLVSEEQEDLIVFPTNTGSYAVCCDPIDGSSNLDAGVSVGTIASIFRLLPDSSGTINDVLRCGKEMVAACYAMYGSSTHLVLTLGDGVDGFTLDTNLGEFILTHPNLRIPPQKAIYSINEGNTLYWNETIRTFIEKVKQPQADNNNKPFSARYVGSMVADVHRTFLYGGLFAYPCDKKSPNGKLRLLYEAFPMAFLMEQAGGKAVNDRGERILDLVPSHIHDKSSIWLGSSGEIDKFLDHIGKSQ
B2: Gid2 (natural protein)
chain: MSELLDSFETEFAKFYTDSNLEETNLQKCLDHTHEFKSQLKKLKAHLNKHIQESKPEVYNKLSDKEKQKFKRKRELIIEKLSKSQRQWDHSVKKQIKYVSQQSNRFNKSTLNKLKEFDIDSVYVNKLPKETMENVNEAIGYHILRYSIDNMPLGNKNEAFQYLKDVYGITNKESTEFIEMGQIVHDLKKGDTESCLKWCSNEMESLSSNHTALSSLKFDLYTLSAMQIVKHGNPVELYYQITQNAPLDCFRHREKELMQNVVPLLTKSLIGQPIEDIDSKVNKELKECTSLFIKEYCAAKHIFFDSPLFLIVLSGLISFQFFIKYKTIRELAHVDWTTKDELPFDVKLPDFLTHFHPIFICPVLKEETTTENPPYSLACHHIISKKALDRLSKNGTITFKCPYCPVNTSMSSTKKVRFVML
B3: Gid4 (Δ1-116) (domain or fragment)
chain: TVCTNYLRPRMQFTGYQISGYKRYQVTVNLKTVDLPKKDCTSLSPHLSGFLSIRGLTNQHPEISTYFEAYAVNHKELGFLSSSWKDEPVLNEFKATDQTDLEHWINFPSFRQLFLMSQKNGLNSTDDNGTTNAAKKLPPQQLPTTPSADAGNISRIFSQEKQFDNYLNERFIFMKWKEKFLVPDALLMEGVDGASYDGFYYIVHDQVTGNIQGFYYHQDAEKFQQLELVPSLKNKVESSDCSFEFA
B4: Gid8 with a C-terminal twin-Strep tag (natural protein)
chain: MTISTLSNETTKSGSCSGQGKNGGKDFTYGKKCFTKEEWKEQVAKYSAMGELYANKTIHYPLKIQPNSSGGSQDEGFATIQTTPIEPTLPRLLLNYFVSMAYEDSSIRMAKELGFIRNNKDIAVFNDLYKIKERFHIKHLIKLGRINEAMEEINSIFGLEVLEETFNATGSYTGRTDRQQQQQQQQFDIDGDLHFKLLLLNLIEMIRSHHQQENITKDSNDFILNLIQYSQNKLAIKASSSVKKMQELELAMTLLLFPLSDSADSGSIKLPKSLQNLYSISLRSKIADLVNEKLLKFIHPRIQFEISNNNSKFPDLLNSDKKIITQNFTVYNNNLVNGSNGTKITHISSDQPINEKMSSNEVTAAANSVWLNQRDGNVGTGSAATTFHNLENKNYWNQTSELLSSSNGKEKGLEFNNYYSSEFPYEPRLTQIMKLWCWCENQLHHNQIGVPRVEN

Key:
[1] = target: GST-WDR26 (human) (UniProt Q9H7D7); test: cryo-EM structure
[2] = target: the molecule itself; test: crystal structure
[3] = target: B4; test: cryo-EM structure
[4] = target: T1, Gid9; test: cryo-EM structure
[5] = target: T2, Gid5; test: cryo-EM structure
[6] = target: T3, Gid1; test: cryo-EM structure

GST-WDR26 (from UniProt Q9H7D7 1-661) (natural protein)
stoichiometry N [1]: 2

B1
stoichiometry N [2]: 4

B2
binding result [3]: binds | binding result [4]: binds

B3
binding result [5]: binds

B4
binding result [6]: binds | binding result [4]: binds
